Sequences and labels used below:
B1: Ankyrin repeat and SAM domain-containing protein 6, residues 774 to 836; numbered along this chain, Q68DC2 (parent)
chain: DEDELTGILKKLSLEKYQPIFEEQEVDMEAFLTLTDGDLKELGIKTDGSRQQILAAISELNAG

± gives the uncertainty stated by the source.

We go through 42 variants from the Human Domainome abundance scans (Beltran et al. 2025).

This series covers variants of B1. In words: abundance fitness (aPCA) (normalised: wild type 0, dead -1); higher = more abundant; growth selection in yeast, the domain comes from the species named. The following applies: Homo sapiens.
For DEDELTGILKKLSLEKYQSIFEEQEVDMEAFLTLTDGDLKELGIKTDGSRQQILAAISELNAG [P19S], the abundance fitness is -0.094 ± 0.04.

As to DEDELTGILKKLSLEKYQTIFEEQEVDMEAFLTLTDGDLKELGIKTDGSRQQILAAISELNAG [P19T], the abundance fitness was -0.138 ± 0.078.

Regarding DEDELTGILKKLSLEKYQFIFEEQEVDMEAFLTLTDGDLKELGIKTDGSRQQILAAISELNAG [P19F], the abundance fitness is -0.285 ± 0.051.

Take DEDELTGILKKLSLEKYQHIFEEQEVDMEAFLTLTDGDLKELGIKTDGSRQQILAAISELNAG [P19H]: the abundance fitness was 0.005 ± 0.048.

On to DEDELTGILKKLSLEKYQLIFEEQEVDMEAFLTLTDGDLKELGIKTDGSRQQILAAISELNAG [P19L], for which the abundance fitness was -0.456 ± 0.072.

For the variant DEDELTGILKKLSLEKYQIIFEEQEVDMEAFLTLTDGDLKELGIKTDGSRQQILAAISELNAG [P19I], the abundance fitness is -0.509 ± 0.05.

For the variant DEDELTGILKKLSLEKYQDIFEEQEVDMEAFLTLTDGDLKELGIKTDGSRQQILAAISELNAG [P19D], the abundance fitness was -0.023 ± 0.083.

With DEDELTGILKKLSLEKYQAIFEEQEVDMEAFLTLTDGDLKELGIKTDGSRQQILAAISELNAG [P19A], the abundance fitness was -0.073 ± 0.068.

As to DEDELTGILKKLSLEKYQQIFEEQEVDMEAFLTLTDGDLKELGIKTDGSRQQILAAISELNAG [P19Q], the abundance fitness is -0.21 ± 0.16.

With DEDELTGILKKLSLEKYQMIFEEQEVDMEAFLTLTDGDLKELGIKTDGSRQQILAAISELNAG [P19M], the abundance fitness is -0.035 ± 0.15.

Take DEDELTGILKKLSLEKYQYIFEEQEVDMEAFLTLTDGDLKELGIKTDGSRQQILAAISELNAG [P19Y]: the abundance fitness is -0.234 ± 0.054.

For DEDELTGILKKLSLEKYQRIFEEQEVDMEAFLTLTDGDLKELGIKTDGSRQQILAAISELNAG [P19R], the abundance fitness is -0.116 ± 0.057.

For DEDELTGILKKLSLEKYQVIFEEQEVDMEAFLTLTDGDLKELGIKTDGSRQQILAAISELNAG [P19V], the abundance fitness was -0.346 ± 0.055.

Take DEDELTGILKKLSLEKYQNIFEEQEVDMEAFLTLTDGDLKELGIKTDGSRQQILAAISELNAG [P19N]: the abundance fitness is -0.059 ± 0.071.

Regarding DEDELTGILKKLSLEKYQGIFEEQEVDMEAFLTLTDGDLKELGIKTDGSRQQILAAISELNAG [P19G], the abundance fitness is -0.116 ± 0.055.

For the variant DEDELTGILKKLSLEKYQWIFEEQEVDMEAFLTLTDGDLKELGIKTDGSRQQILAAISELNAG [P19W], the abundance fitness was -0.208 ± 0.14.

As to DEDELTGILKKLSLEKYQKIFEEQEVDMEAFLTLTDGDLKELGIKTDGSRQQILAAISELNAG [P19K], the abundance fitness was -0.416 ± 0.12.

With DEDELTGILKKLSLEKYQCIFEEQEVDMEAFLTLTDGDLKELGIKTDGSRQQILAAISELNAG [P19C], the abundance fitness is -0.247 ± 0.057.

DEDELTGILKKLSLEKYQPIKEEQEVDMEAFLTLTDGDLKELGIKTDGSRQQILAAISELNAG [F21K]: the abundance fitness was -0.556 ± 0.082.

As for DEDELTGILKKLSLEKYQPICEEQEVDMEAFLTLTDGDLKELGIKTDGSRQQILAAISELNAG [F21C], the abundance fitness was -0.697 ± 0.2.

Turning to DEDELTGILKKLSLEKYQPIPEEQEVDMEAFLTLTDGDLKELGIKTDGSRQQILAAISELNAG [F21P], the abundance fitness is -0.65 ± 0.098.

Consider DEDELTGILKKLSLEKYQPIVEEQEVDMEAFLTLTDGDLKELGIKTDGSRQQILAAISELNAG [F21V], for which the abundance fitness was -0.595 ± 0.095.

As for DEDELTGILKKLSLEKYQPIAEEQEVDMEAFLTLTDGDLKELGIKTDGSRQQILAAISELNAG [F21A], the abundance fitness is -0.348 ± 0.058.

On to DEDELTGILKKLSLEKYQPIMEEQEVDMEAFLTLTDGDLKELGIKTDGSRQQILAAISELNAG [F21M], for which the abundance fitness is -0.372 ± 0.077.

Turning to DEDELTGILKKLSLEKYQPIREEQEVDMEAFLTLTDGDLKELGIKTDGSRQQILAAISELNAG [F21R], the abundance fitness is -0.609 ± 0.049.

With DEDELTGILKKLSLEKYQPISEEQEVDMEAFLTLTDGDLKELGIKTDGSRQQILAAISELNAG [F21S], the abundance fitness is -0.615 ± 0.06.

In the case of DEDELTGILKKLSLEKYQPITEEQEVDMEAFLTLTDGDLKELGIKTDGSRQQILAAISELNAG [F21T], the abundance fitness is -0.589 ± 0.081.

For the variant DEDELTGILKKLSLEKYQPIHEEQEVDMEAFLTLTDGDLKELGIKTDGSRQQILAAISELNAG [F21H], the abundance fitness was -0.629 ± 0.058.

For the variant DEDELTGILKKLSLEKYQPILEEQEVDMEAFLTLTDGDLKELGIKTDGSRQQILAAISELNAG [F21L], the abundance fitness was -0.222 ± 0.048.

Regarding DEDELTGILKKLSLEKYQPIWEEQEVDMEAFLTLTDGDLKELGIKTDGSRQQILAAISELNAG [F21W], the abundance fitness was -0.847 ± 0.096.

For the variant DEDELTGILKKLSLEKYQPIEEEQEVDMEAFLTLTDGDLKELGIKTDGSRQQILAAISELNAG [F21E], the abundance fitness is -0.36 ± 0.092.

On to DEDELTGILKKLSLEKYQPIGEEQEVDMEAFLTLTDGDLKELGIKTDGSRQQILAAISELNAG [F21G], for which the abundance fitness was -0.579 ± 0.079.

DEDELTGILKKLSLEKYQPINEEQEVDMEAFLTLTDGDLKELGIKTDGSRQQILAAISELNAG [F21N]: the abundance fitness is -0.553 ± 0.16.

Regarding DEDELTGILKKLSLEKYQPIIEEQEVDMEAFLTLTDGDLKELGIKTDGSRQQILAAISELNAG [F21I], the abundance fitness was -0.615 ± 0.17.

For DEDELTGILKKLSLEKYQPIFEGQEVDMEAFLTLTDGDLKELGIKTDGSRQQILAAISELNAG [E23G], the abundance fitness is -0.229 ± 0.062.

With DEDELTGILKKLSLEKYQPIFEIQEVDMEAFLTLTDGDLKELGIKTDGSRQQILAAISELNAG [E23I], the abundance fitness is -0.317 ± 0.083.

For DEDELTGILKKLSLEKYQPIFELQEVDMEAFLTLTDGDLKELGIKTDGSRQQILAAISELNAG [E23L], the abundance fitness was -0.419 ± 0.039.

With DEDELTGILKKLSLEKYQPIFEAQEVDMEAFLTLTDGDLKELGIKTDGSRQQILAAISELNAG [E23A], the abundance fitness was -0.062 ± 0.051.

Regarding DEDELTGILKKLSLEKYQPIFEKQEVDMEAFLTLTDGDLKELGIKTDGSRQQILAAISELNAG [E23K], the abundance fitness was -0.085 ± 0.1.

DEDELTGILKKLSLEKYQPIFEDQEVDMEAFLTLTDGDLKELGIKTDGSRQQILAAISELNAG [E23D]: the abundance fitness was -0.155 ± 0.085.

Turning to DEDELTGILKKLSLEKYQPIFEHQEVDMEAFLTLTDGDLKELGIKTDGSRQQILAAISELNAG [E23H], the abundance fitness is -0.429 ± 0.13.

For DEDELTGILKKLSLEKYQPIFECQEVDMEAFLTLTDGDLKELGIKTDGSRQQILAAISELNAG [E23C], the abundance fitness was -0.409 ± 0.062.
